These sequences were tested against Fyn (UniProt P06241) (assay: phosphorylation enrichment, bacterial display (enrichment ratio); higher = better substrate or ligand; peptides without Tyr show the background).
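Note: 11-residue human phosphosite peptides and single-mutation variants displayed on the E. coli surface, counted by deep sequencing, each peptide's frequency after selection divided by its frequency in the unselected input library; frequency after pTyr selection over input frequency; kinase dosed for 20-30% of maximal phosphorylation in three min.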

Chain of Fyn (P06241 whole entry, looked up): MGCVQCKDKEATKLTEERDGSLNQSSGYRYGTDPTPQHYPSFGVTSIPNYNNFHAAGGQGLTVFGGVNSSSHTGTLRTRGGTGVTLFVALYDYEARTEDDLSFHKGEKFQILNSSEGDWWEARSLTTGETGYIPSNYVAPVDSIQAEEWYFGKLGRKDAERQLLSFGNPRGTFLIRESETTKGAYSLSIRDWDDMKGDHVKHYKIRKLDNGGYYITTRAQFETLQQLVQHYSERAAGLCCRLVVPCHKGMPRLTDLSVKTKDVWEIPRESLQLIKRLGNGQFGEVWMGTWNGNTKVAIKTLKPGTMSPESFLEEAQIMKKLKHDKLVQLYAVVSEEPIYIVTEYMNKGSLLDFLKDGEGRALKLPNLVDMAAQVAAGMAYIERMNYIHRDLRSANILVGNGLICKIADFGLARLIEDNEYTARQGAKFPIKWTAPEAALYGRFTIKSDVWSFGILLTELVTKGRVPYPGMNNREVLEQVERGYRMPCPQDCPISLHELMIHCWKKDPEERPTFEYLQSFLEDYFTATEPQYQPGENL

Going from VATRWYRSPEP [CDKL5_Y177_L182P] to KQRSDYARELE [MYH3_Y1140], the phosphorylation enrichment falls from 0.525 to 0.417.

First: SGSWSYNTSTE [SELE_Y24_A21S]
Second: EFISENCGEII [EZH2_Y641_Y641N]
The phosphorylation enrichment of the first is lower: 0.5 for the first, 0.581 for the second.

First: DRIVNYSRASI [ATP7A_Y1459]
Second: IRKDLYANNVL [ACTA2_Y296]
The phosphorylation enrichment of the first is lower: 0.374 for the first, 0.413 for the second.

Going from TSFSGYRCHRH [NKAPL_Y94_Y96C_YF] to MCITQYERESQ [PRNP_Y218], the phosphorylation enrichment rises from 0.419 to 0.496.

Compared with QTEGEYSSLEH [IDH3B_Y171], SENAFYLSPDI [COL6A3_Y2827] is lower in phosphorylation enrichment: 0.886 for the first, 0.607 for the second.

Going from AFDNLYFWDQD [ERBB2_Y1221_YF] to AELVRYFMEHH [PTPN11_Y80_Q79R_YF], the phosphorylation enrichment falls from 5.76 to 0.414.

Going from TTIVSYRASQP [MKI67_Y1737_K1734I] to TRNVRYLTLDI [AKR1C2_Y305_N300T], the phosphorylation enrichment falls from 0.481 to 0.407.

Compared with FTYDPYSEEDP [IL2RB_Y387], DVVKDCAFVHM [RBM14_Y114_Y114C] is lower in phosphorylation enrichment: 1.28 for the first, 0.488 for the second.

Each sequence was assayed against MERTK (UniProt Q12866) in the same assay as above.
Chain of MERTK (Q12866 whole entry, looked up): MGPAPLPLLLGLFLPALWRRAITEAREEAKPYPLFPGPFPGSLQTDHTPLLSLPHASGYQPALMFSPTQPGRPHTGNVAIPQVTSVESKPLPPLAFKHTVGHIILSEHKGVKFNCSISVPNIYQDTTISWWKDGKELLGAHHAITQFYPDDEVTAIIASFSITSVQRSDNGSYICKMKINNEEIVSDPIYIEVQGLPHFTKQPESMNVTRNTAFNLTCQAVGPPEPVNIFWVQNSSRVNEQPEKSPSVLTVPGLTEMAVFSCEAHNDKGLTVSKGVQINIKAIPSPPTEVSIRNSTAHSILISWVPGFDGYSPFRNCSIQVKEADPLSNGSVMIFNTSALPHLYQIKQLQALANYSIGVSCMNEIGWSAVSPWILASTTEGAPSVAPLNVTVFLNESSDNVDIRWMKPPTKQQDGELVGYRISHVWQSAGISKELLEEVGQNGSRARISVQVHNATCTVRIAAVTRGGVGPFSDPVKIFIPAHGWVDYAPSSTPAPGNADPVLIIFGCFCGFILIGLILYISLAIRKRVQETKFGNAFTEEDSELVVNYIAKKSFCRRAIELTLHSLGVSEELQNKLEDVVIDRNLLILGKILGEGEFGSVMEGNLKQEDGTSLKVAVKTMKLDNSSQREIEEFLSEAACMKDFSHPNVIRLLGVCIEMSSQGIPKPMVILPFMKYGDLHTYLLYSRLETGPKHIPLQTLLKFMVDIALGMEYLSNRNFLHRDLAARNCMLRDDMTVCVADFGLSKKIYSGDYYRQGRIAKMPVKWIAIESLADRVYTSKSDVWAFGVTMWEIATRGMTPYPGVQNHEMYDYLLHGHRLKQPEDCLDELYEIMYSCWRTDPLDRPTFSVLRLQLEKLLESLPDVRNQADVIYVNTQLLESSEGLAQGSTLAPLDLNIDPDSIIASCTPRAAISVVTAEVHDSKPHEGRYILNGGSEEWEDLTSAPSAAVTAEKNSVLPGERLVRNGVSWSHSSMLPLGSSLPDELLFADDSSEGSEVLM

First: VATRWYRSPEP [CDKL5_Y177_L182P]
Second: KQRSDYARELE [MYH3_Y1140]
The phosphorylation enrichment of the first is higher: 0.421 for the first, 0.38 for the second.

First: SGSWSYNTSTE [SELE_Y24_A21S]
Second: EFISENCGEII [EZH2_Y641_Y641N]
The phosphorylation enrichment of the first is higher: 0.503 for the first, 0.437 for the second.

First: DRIVNYSRASI [ATP7A_Y1459]
Second: IRKDLYANNVL [ACTA2_Y296]
The phosphorylation enrichment of the first is lower: 0.383 for the first, 0.476 for the second.

First: TSFSGYRCHRH [NKAPL_Y94_Y96C_YF]
Second: MCITQYERESQ [PRNP_Y218]
The phosphorylation enrichment of the first is lower: 0.469 for the first, 0.485 for the second.

Compared with QTEGEYSSLEH [IDH3B_Y171], SENAFYLSPDI [COL6A3_Y2827] is higher in phosphorylation enrichment: 0.556 for the first, 0.754 for the second.

First: AFDNLYFWDQD [ERBB2_Y1221_YF]
Second: AELVRYFMEHH [PTPN11_Y80_Q79R_YF]
The phosphorylation enrichment of the first is higher: 5.13 for the first, 0.421 for the second.

Going from TTIVSYRASQP [MKI67_Y1737_K1734I] to TRNVRYLTLDI [AKR1C2_Y305_N300T], the phosphorylation enrichment falls from 0.438 to 0.372.

Going from FTYDPYSEEDP [IL2RB_Y387] to DVVKDCAFVHM [RBM14_Y114_Y114C], the phosphorylation enrichment rises from 0.389 to 0.401.

These sequences were tested against EPHB1 (UniProt P54762) in the same assay as above.
Chain of EPHB1 (P54762 whole entry, looked up): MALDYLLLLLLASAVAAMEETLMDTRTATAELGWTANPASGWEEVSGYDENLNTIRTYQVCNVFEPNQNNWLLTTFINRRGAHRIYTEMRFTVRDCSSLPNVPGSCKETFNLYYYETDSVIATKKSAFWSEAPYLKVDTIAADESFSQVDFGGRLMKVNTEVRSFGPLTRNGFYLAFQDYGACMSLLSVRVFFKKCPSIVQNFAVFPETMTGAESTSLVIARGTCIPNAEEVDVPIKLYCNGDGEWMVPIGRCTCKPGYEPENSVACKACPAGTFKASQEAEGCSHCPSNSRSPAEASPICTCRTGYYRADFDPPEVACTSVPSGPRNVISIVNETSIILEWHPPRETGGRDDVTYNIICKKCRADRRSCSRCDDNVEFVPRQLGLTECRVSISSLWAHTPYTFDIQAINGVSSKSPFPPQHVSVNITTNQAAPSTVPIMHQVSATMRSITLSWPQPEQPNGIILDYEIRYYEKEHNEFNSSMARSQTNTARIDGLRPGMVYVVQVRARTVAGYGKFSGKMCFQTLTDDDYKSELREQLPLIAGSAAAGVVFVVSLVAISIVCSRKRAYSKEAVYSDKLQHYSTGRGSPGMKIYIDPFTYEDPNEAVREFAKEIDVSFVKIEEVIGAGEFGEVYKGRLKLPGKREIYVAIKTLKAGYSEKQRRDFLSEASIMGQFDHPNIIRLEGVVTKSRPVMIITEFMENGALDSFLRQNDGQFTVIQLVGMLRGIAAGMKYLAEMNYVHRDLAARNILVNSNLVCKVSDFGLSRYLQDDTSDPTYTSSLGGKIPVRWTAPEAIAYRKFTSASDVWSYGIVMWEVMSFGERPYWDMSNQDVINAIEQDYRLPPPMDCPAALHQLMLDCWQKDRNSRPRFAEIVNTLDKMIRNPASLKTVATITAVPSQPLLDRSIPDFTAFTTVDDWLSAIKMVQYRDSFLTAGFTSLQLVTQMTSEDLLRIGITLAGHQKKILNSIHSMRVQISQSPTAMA

First: VATRWYRSPEP [CDKL5_Y177_L182P]
Second: KQRSDYARELE [MYH3_Y1140]
The phosphorylation enrichment of the first is higher: 0.55 for the first, 0.38 for the second.

First: SGSWSYNTSTE [SELE_Y24_A21S]
Second: EFISENCGEII [EZH2_Y641_Y641N]
The phosphorylation enrichment of the first is lower: 0.56 for the first, 0.585 for the second.

First: DRIVNYSRASI [ATP7A_Y1459]
Second: IRKDLYANNVL [ACTA2_Y296]
The phosphorylation enrichment of the first is higher: 0.432 for the first, 0.38 for the second.

Going from TSFSGYRCHRH [NKAPL_Y94_Y96C_YF] to MCITQYERESQ [PRNP_Y218], the phosphorylation enrichment falls from 0.576 to 0.419.

Going from QTEGEYSSLEH [IDH3B_Y171] to SENAFYLSPDI [COL6A3_Y2827], the phosphorylation enrichment falls from 0.91 to 0.793.

Going from AFDNLYFWDQD [ERBB2_Y1221_YF] to AELVRYFMEHH [PTPN11_Y80_Q79R_YF], the phosphorylation enrichment falls from 1.42 to 0.458.

Compared with TTIVSYRASQP [MKI67_Y1737_K1734I], TRNVRYLTLDI [AKR1C2_Y305_N300T] is higher in phosphorylation enrichment: 0.454 for the first, 0.787 for the second.

First: FTYDPYSEEDP [IL2RB_Y387]
Second: DVVKDCAFVHM [RBM14_Y114_Y114C]
The phosphorylation enrichment of the first is lower: 0.564 for the first, 0.582 for the second.

Each sequence was assayed against Jak2 (UniProt O60674) in the same assay as above.
Chain of Jak2 (O60674 whole entry, looked up): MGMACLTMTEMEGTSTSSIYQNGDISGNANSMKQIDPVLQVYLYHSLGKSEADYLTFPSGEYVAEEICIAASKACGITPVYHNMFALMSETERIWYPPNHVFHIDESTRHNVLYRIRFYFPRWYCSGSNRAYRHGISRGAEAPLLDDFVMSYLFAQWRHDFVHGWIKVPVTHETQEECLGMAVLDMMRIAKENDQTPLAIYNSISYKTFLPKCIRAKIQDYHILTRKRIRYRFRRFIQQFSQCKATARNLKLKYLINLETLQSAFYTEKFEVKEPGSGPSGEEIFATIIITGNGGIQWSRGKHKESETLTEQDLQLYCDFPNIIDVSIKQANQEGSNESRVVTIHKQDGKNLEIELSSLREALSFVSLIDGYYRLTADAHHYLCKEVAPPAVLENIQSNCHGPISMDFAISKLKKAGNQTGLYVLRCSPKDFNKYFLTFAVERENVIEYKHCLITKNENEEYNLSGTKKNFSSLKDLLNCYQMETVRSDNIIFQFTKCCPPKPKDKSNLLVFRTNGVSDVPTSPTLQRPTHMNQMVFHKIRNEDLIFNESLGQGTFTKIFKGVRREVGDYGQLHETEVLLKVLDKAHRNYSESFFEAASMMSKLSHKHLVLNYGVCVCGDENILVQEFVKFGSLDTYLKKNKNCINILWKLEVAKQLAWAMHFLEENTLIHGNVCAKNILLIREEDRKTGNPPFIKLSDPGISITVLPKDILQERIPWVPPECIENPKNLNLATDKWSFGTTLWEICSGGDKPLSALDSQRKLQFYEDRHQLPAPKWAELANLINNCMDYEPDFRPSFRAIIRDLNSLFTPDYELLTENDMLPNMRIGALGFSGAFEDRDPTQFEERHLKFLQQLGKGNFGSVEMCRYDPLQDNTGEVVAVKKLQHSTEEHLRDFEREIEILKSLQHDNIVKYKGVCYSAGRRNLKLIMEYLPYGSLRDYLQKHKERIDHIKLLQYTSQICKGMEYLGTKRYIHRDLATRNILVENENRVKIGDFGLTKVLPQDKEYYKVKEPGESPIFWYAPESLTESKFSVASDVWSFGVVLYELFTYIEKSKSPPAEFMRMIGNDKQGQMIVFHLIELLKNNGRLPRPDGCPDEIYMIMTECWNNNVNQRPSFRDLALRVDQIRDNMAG

Compared with VATRWYRSPEP [CDKL5_Y177_L182P], KQRSDYARELE [MYH3_Y1140] is higher in phosphorylation enrichment: 0.565 for the first, 0.596 for the second.

Going from SGSWSYNTSTE [SELE_Y24_A21S] to EFISENCGEII [EZH2_Y641_Y641N], the phosphorylation enrichment rises from 0.968 to 1.13.

Compared with DRIVNYSRASI [ATP7A_Y1459], IRKDLYANNVL [ACTA2_Y296] is higher in phosphorylation enrichment: 0.48 for the first, 0.54 for the second.

Compared with TSFSGYRCHRH [NKAPL_Y94_Y96C_YF], MCITQYERESQ [PRNP_Y218] is lower in phosphorylation enrichment: 0.718 for the first, 0.654 for the second.

Going from QTEGEYSSLEH [IDH3B_Y171] to SENAFYLSPDI [COL6A3_Y2827], the phosphorylation enrichment rises from 1.64 to 1.68.

First: AFDNLYFWDQD [ERBB2_Y1221_YF]
Second: AELVRYFMEHH [PTPN11_Y80_Q79R_YF]
The phosphorylation enrichment of the first is higher: 1.56 for the first, 0.621 for the second.

Compared with TTIVSYRASQP [MKI67_Y1737_K1734I], TRNVRYLTLDI [AKR1C2_Y305_N300T] is higher in phosphorylation enrichment: 0.6 for the first, 0.684 for the second.

Compared with FTYDPYSEEDP [IL2RB_Y387], DVVKDCAFVHM [RBM14_Y114_Y114C] is lower in phosphorylation enrichment: 0.957 for the first, 0.71 for the second.

Reference: the supplement of paper PMC10065799, “High-throughput profiling of sequence recognition by tyrosine kinases and SH2 domains using bacterial peptide display” (eLife, 2023)
